In paper PMC3961655, “Methyllysine Reader Plant Homeodomain (PHD) Finger Protein 20-like 1 (PHF20L1) Antagonizes DNA (Cytosine-5) Methyltransferase 1 (DNMT1) Proteasomal Degradation*” (The Journal of Biological Chemistry, 2014):

Biological target: endogenous DNMT1 (human (endogenous in HeLa, HEK293, …, UniProt P26358 1-1616))
Test: cell-based or functional assay

Chain of endogenous DNMT1 (human (P26358 whole entry): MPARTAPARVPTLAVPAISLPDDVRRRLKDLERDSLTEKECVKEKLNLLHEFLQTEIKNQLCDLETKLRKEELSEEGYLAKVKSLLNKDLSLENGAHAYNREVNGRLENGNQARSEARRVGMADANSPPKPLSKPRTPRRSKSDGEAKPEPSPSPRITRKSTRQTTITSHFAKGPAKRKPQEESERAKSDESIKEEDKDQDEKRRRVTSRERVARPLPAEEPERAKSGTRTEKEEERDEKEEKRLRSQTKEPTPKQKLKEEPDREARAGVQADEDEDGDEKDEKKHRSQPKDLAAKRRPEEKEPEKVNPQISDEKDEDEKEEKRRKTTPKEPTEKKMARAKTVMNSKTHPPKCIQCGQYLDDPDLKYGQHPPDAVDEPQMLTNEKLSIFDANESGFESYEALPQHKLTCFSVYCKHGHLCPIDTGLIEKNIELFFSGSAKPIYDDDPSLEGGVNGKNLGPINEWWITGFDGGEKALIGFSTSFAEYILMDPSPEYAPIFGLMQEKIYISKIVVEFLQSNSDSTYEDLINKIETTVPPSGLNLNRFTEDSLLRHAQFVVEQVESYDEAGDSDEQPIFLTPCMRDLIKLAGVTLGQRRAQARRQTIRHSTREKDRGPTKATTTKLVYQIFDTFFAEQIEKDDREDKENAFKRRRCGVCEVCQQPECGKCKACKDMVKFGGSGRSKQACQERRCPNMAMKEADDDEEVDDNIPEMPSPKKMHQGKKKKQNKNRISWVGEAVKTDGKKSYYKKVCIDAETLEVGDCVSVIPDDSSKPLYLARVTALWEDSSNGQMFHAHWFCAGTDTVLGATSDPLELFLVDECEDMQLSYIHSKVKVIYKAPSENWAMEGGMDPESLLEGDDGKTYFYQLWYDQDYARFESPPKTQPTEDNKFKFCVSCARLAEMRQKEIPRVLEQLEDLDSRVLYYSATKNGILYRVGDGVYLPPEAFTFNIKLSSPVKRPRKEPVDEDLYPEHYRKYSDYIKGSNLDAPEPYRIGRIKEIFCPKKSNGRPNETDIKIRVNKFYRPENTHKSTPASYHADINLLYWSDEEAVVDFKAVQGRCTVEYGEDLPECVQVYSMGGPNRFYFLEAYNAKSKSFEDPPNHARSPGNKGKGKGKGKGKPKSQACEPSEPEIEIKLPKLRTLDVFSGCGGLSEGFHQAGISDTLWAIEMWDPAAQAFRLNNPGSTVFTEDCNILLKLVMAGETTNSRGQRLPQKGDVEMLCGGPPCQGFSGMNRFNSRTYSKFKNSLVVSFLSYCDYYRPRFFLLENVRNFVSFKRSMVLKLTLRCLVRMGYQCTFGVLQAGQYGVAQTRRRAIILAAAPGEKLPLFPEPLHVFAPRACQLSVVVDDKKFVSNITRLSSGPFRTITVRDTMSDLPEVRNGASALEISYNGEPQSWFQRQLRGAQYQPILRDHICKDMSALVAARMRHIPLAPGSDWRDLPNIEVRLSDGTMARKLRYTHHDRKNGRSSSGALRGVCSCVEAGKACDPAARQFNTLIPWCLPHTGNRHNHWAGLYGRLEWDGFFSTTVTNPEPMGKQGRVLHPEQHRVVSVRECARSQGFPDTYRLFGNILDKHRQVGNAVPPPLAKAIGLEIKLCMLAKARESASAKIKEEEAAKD

B1: endogenous PHF20L1a (natural protein, UniProt A8MW92 1-1017, looked up)
chain: MSKKPPNRPGITFEIGARLEALDYLQKWYPSRIEKIDYEEGKMLVHFERWSHRYDEWIYWDSNRLRPLERPALRKEGLKDEEDFFDFKAGEEVLARWTDCRYYPAKIEAINKEGTFTVQFYDGVIRCLKRMHIKAMPEDAKGQVKSQHPLSWCCPIDPAGSCNQSMGSEDWIALVKAAAAAAAKNKTGSKPRTSANSNKDKDKDERKWFKVPSKKEETSTCIATPDVEKKEDLPTSSETFGLHVENVPKMVFPQPESTLSNKRKNNQGNSFQAKRARLNKITGLLASKAVGVDGAEKKEDYNETAPMLEQAISPKPQSQKKNEADISSSANTQKPALLSSTLSSGKARSKKCKHESGDSSGCIKPPKSPLSPELIQVEDLTLVSQLSSSVINKTSPPQPVNPPRPFKHSERRRRSQRLATLPMPDDSVEKVSSPSPATDGKVFSISSQNQQESSVPEVPDVAHLPLEKLGPCLPLDLSRGSEVTAPVASDSSYRNECPRAEKEDTQMLPNPSSKAIADGRGAPAAAGISKTEKKVKLEDKSSTAFGKRKEKDKERREKRDKDHYRPKQKKKKKKKKKSKQHDYSDYEDSSLEFLERCSSPLTRSSGSSLASRSMFTEKTTTYQYPRAILSVDLSGENLSDVDFLDDSSTESLLLSGDEYNQDFDSTNFEESQDEDDALNEIVRCICEMDEENGFMIQCEECLCWQHSVCMGLLEESIPEQYICYICRDPPGQRWSAKYRYDKEWLNNGRMCGLSFFKENYSHLNAKKIVSTHHLLADVYGVTEVLHGLQLKIGILKNKHHPDLHLWACSGKRKDQDQIIAGVEKKIAQDTVNREEKKYVQNHKEPPRLPLKMEGTYITSEHSYQKPQSFGQDCKSLADPGSSDDDDVSSLEEEQEFHMRSKNSLQYSAKEHGMPEKNPAEGNTVFVYNDKKGTEDPGDSHLQWQLNLLTHIENVQNEVTSRMDLIEKEVDVLESWLDFTGELEPPDPLARLPQLKRHIKQLLIDMGKVQQIATLCSV
half-life of DNMT1 in HeLa cells with cycloheximide, 60 uM UNC1215 (MBT domain inhibitor) against ethanol: ~50%
